{"source": "patent US20260000742", "target": "mature TGF-β1, P04202", "sequence (P04202 279-390)": "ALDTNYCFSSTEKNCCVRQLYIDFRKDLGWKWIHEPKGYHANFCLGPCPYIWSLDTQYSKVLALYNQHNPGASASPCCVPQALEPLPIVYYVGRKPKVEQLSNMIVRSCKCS", "data": [{"protein": "Htra3 tagged with FLAG at the C-terminus (Htra3-flag protein) (protein) REPPAAPCPARCDVSRCPSPRCPGGYVPDLCNCCLVCAASEGEPCGRPLDSPCGDSLECVRGVCRCRWTHTVCGTDGHTYADVCALQAASRRALQVSGTPVRQLQKGACPSGLHQLTSPRYKFNFIADVVEKIAPAVVHIELFLRHPLFGRNVPLSSGSGFIMSEAGLIVTNAHVVSSSSTASGRQQLKVQLQNGDAYEATIQDIDKKSDIATIVIHPKKKLPVLLLGHSADLRPGEFVVAIGSPFALQNTVTTGIVSTAQRDGKELGLRDSDMDYIQTDAIINYGNSGGPLVNLDGEVIGINTLKVAAGISFAIPSDRITRFLSEFQNKHVKDWKKRFIGIRMRTITPSLVEELKAANPDFPAVSSGIYVQEVVPNSPSQRGGIQDGDIIVKVNGRPLADSSELQEAVLNESSLLLEVRRGNDDLLFSIIPEVVM", "values": [{"measurement": "protein levels of TGF-β1 and phosphorylated Smad2/3 in primary cardiac fibroblasts (western blot)", "value": "overexpression of Htra3 reduced the protein levels of both TGF-β1 and phosphorylated Smad2/3 (phospho-Smad2/3), a marker of activated TGF-β signaling"}]}]}
